Residue numbers refer to the chain shown, from its start. Square brackets hold non-standard residues; d marks the D form. GABA = NCCCC(=O)O
B1: BC2 nanobody (VHH)
VHH: QVQLVESGGGLVQPGGSLTLSCTASGFTLDHYDIGWFRQAPGKEREGVSCINNSDDDTYYADSVKGRFTIFMDNAKDTVYLQMNSLKPEDTAIYYCAEARGCKRGRYEYDFWGQGTQVTVSS
notes: immobilised on beads in this assay; also called BC2-Nb; BC2 nanotrap (immobilised)
B2: BC2-NbR106S (VHH)
VHH: B1 VHH with R106S
notes: headlock mutant of BC2-Nb; immobilised on beads in this assay

How the values were obtained:
Experiment in all cases: positional peptide library pulldown on immobilised Nb, LC-MS of supernatant; signal ratio to control GFP-Nb (1 = not captured, near 0 = captured)
BC2T W10R = molecular target: T1, BC2T W10R
T1 construct: positional scanning library member
T1 peptide: Ac-PDRKAAVSHRQQ-NH2
Source text: (§1) In total, 12 different BC2T libraries displaying all 20 proteinogenic amino acids in one single position of the peptide were used in immunoprecipitation experiments. […] The direct comparison with the GFP-Nb made it possible to determine the quantitative degree of peptide capture without the need of labeled standards. […] The more peptide was captured the more the value approximates 0. It was not possible to discriminate between isoleucine (I) and leucine (L) peptide versions since these peptides are isobaric.
(§2) To investigate the binding specificity of the BC2T and derived mutants peptide libraries for each amino acid position of the sequence […] (SEQ ID NO:4) were synthesized with acetyl and amide groups located at the N-termini or C-termini respectively (Intavis). […] Incubations were performed in 300 μl PBS/0.01% CHAPS for 1 h on a HulaMixer (Life Technologies). Subsequent to a centrifugation step 10 μl supernatant were analyzed in a LC-MS procedure. Peptides were separated using an UltiMate3000 RSLCnano System (Thermo Scientific), composed of a C18 PepMap100μ-Precolumn (300 μm×5 mm; particle size: 5 μm; pore size: 100 Å—Thermo Scientific) and a C18 analytical column (Acclaim Rapid Separation LC (RSLC) Column: 150 mm×5 mm; particle size: 2.2 μm; pore size: 100 Å—Thermo Scientific). A step gradient was applied starting at 8% and ending after 20 min at 30% eluent B (80% acetonitrile, 20% H₂O, 0.1% formic acid).

BC2T S8Q = molecular target: T2, BC2T S8Q
T2 construct: positional scanning library member
T2 peptide: Ac-PDRKAAVQHWQQ-NH2
Source text: as §1, §2

BC2T H9P = molecular target: T3, BC2T H9P
T3 construct: positional scanning library member
T3 peptide: Ac-PDRKAAVSPWQQ-NH2
Source text: as §1, §2

BC2T Q12C(Abu) = molecular target: T4, BC2T Q12C(Abu) (SMILES …)
T4 construct: positional scanning library member
T4 peptide: Ac-PDRKAAVSHWQ[GABA]-NH2
Source text: as §1, §2

BC2T H9F = molecular target: T5, BC2T H9F
T5 construct: positional scanning library member
T5 peptide: Ac-PDRKAAVSFWQQ-NH2
Source text: as §1, §2

BC2T Q12(I/L1) = molecular target: T6, BC2T Q12(I/L1) (N-terminal acetyl; C-terminal amide)
T6 construct: positional scanning library member; I or L not resolved
Source text: as §1, §2

BC2T W10Y = molecular target: T7, BC2T W10Y
T7 construct: positional scanning library member
T7 peptide: Ac-PDRKAAVSHYQQ-NH2
Source text: as §1, §2

BC2T Q12A = molecular target: T8, BC2T Q12A
T8 construct: positional scanning library member
T8 peptide: Ac-PDRKAAVSHWQA-NH2
Source text: as §1, §2

BC2T Q11K = molecular target: T9, BC2T Q11K
T9 construct: positional scanning library member
T9 peptide: Ac-PDRKAAVSHWKQ-NH2
Source text: as §1, §2

BC2T Q11H = molecular target: T10, BC2T Q11H
T10 construct: positional scanning library member
T10 peptide: Ac-PDRKAAVSHWHQ-NH2
Source text: as §1, §2

BC2T S8R = molecular target: T11, BC2T S8R
T11 construct: positional scanning library member
T11 peptide: Ac-PDRKAAVRHWQQ-NH2
Source text: as §1, §2

BC2T W10G = molecular target: T12, BC2T W10G
T12 construct: positional scanning library member
T12 peptide: Ac-PDRKAAVSHGQQ-NH2
Source text: as §1, §2

BC2T Q11(I/L2) = molecular target: T13, BC2T Q11(I/L2) (N-terminal acetyl; C-terminal amide)
T13 construct: positional scanning library member; I or L not resolved
Source text: as §1, §2

BC2T H9C(Abu) = molecular target: T14, BC2T H9C(Abu) (SMILES …)
T14 construct: positional scanning library member
T14 peptide: Ac-PDRKAAVS[GABA]WQQ-NH2
Source text: as §1, §2

BC2T Q11G = molecular target: T15, BC2T Q11G
T15 construct: positional scanning library member
T15 peptide: Ac-PDRKAAVSHWGQ-NH2
Source text: as §1, §2

BC2T H9W = molecular target: T16, BC2T H9W
T16 construct: positional scanning library member
T16 peptide: Ac-PDRKAAVSWWQQ-NH2
Source text: as §1, §2

BC2T Q12M = molecular target: T17, BC2T Q12M
T17 construct: positional scanning library member
T17 peptide: Ac-PDRKAAVSHWQM-NH2
Source text: as §1, §2

BC2T W10(I/L2) = molecular target: T18, BC2T W10(I/L2) (N-terminal acetyl; C-terminal amide)
T18 construct: positional scanning library member; I or L not resolved
Source text: as §1, §2

BC2T Q11A = molecular target: T19, BC2T Q11A
T19 construct: positional scanning library member
T19 peptide: Ac-PDRKAAVSHWAQ-NH2
Source text: as §1, §2

BC2T S8P = molecular target: T20, BC2T S8P
T20 construct: positional scanning library member
T20 peptide: Ac-PDRKAAVPHWQQ-NH2
Source text: as §1, §2

BC2T Q12R = molecular target: T21, BC2T Q12R
T21 construct: positional scanning library member
T21 peptide: Ac-PDRKAAVSHWQR-NH2
Source text: as §1, §2

Binder | ratio (BC2T W10R) | ratio (BC2T S8Q) | ratio (BC2T H9P) | ratio (BC2T Q12C(Abu)) | ratio (BC2T H9F) | ratio (BC2T Q12(I/L1)) | ratio (BC2T W10Y) | ratio (BC2T Q12A) | ratio (BC2T Q11K) | ratio (BC2T Q11H) | ratio (BC2T S8R) | ratio (BC2T W10G) | ratio (BC2T Q11(I/L2)) | ratio (BC2T H9C(Abu)) | ratio (BC2T Q11G) | ratio (BC2T H9W) | ratio (BC2T Q12M) | ratio (BC2T W10(I/L2)) | ratio (BC2T Q11A) | ratio (BC2T S8P) | further results
B1 | 1 | 0.7 | 0.8 | 0.1 | 0.1 | 0.1 | 1 | 0.1 | 0 | 0.1 | 0.5 | 1.2 | 0.1 | 0.2 | 0.1 | 0.1 | 0.1 | 1 | 0.1 | 0.7 | ratio (BC2T Q12R): 0.1
B2 | 1.1 | 0.9 | 1 | 0.2 | 0.3 | 0.2 | 1 | 0.3 | 0.1 | 0.2 | 0.9 | 1.1 | 0.4 | 0.5 | 0.5 | 0.1 | 0.3 | 1.1 | 0.4 | 1 | ratio (BC2T Q12R): 0.1
